One block for each molecule: values may come before it.
Assays:
[1] = target: Myc-tagged Frz8CRD (Frz8CRD-Myc), cysteine-rich domain of Frizzled 8 (Mus musculus (Mouse)) (UniProt Q61091); experiment: liquid-phase binding assay with immunoprecipitated Frz8CRD-Myc, Scatchard plot
[2] = target: T1, Myc-tagged LRP6N (LRP6N-Myc), extracellular portion of LRP6 (UniProt O75581 20-1370, limits assumed); experiment: IP with anti-Myc antibody, immunoblot with anti-V5 antibody
T1 construct: extracellular domain; Produced in conditioned medium of 293 cells; not shown: Myc tag
T1 sequence (looked up): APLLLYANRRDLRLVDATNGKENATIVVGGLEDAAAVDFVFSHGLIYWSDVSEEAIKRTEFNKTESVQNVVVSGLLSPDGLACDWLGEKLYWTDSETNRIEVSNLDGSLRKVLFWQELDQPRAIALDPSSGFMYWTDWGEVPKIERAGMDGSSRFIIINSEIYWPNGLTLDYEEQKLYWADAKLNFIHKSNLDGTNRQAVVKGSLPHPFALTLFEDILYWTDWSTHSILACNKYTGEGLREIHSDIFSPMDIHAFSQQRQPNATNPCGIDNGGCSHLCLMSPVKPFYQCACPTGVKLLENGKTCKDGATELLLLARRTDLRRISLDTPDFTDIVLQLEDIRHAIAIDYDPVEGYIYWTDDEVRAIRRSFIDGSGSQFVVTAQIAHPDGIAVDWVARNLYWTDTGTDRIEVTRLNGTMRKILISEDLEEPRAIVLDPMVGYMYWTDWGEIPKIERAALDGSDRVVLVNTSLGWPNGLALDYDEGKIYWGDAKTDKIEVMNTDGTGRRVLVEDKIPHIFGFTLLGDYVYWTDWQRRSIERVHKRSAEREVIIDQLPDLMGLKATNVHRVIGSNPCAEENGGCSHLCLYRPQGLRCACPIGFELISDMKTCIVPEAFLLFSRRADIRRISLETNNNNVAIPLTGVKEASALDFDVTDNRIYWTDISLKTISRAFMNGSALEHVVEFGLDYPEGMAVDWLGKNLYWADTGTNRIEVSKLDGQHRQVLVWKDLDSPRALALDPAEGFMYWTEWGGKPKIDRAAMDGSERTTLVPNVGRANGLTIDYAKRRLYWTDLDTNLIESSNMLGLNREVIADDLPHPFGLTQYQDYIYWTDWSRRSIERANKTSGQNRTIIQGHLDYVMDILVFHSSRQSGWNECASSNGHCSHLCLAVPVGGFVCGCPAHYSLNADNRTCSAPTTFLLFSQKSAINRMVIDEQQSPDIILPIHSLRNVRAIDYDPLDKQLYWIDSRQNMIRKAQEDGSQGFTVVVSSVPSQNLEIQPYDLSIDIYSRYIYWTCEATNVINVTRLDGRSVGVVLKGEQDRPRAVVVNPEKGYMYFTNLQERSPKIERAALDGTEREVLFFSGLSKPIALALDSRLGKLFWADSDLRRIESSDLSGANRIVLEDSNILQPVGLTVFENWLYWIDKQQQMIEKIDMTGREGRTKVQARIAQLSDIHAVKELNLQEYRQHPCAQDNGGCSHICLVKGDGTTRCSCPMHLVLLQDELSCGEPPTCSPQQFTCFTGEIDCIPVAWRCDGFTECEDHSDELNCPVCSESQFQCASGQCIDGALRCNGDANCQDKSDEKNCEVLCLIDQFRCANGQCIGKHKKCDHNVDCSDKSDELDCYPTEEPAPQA
Protocol: The interaction was assessed by allowing LRP6N-Myc to react with each V5-tagged IGFBP, and performing immunoprecipitation (IP) with an anti-Myc antibody and subsequent immunoblotting (IB) with an anti-V5 antibody (upper panel), and immunoprecipitation (IP) with an anti-V5 antibody and subsequent immunoblotting (IB) with an anti-V5 antibody (lower panel). In the figure, IGFBP-1, IGFBP-2, IGFBP-3, IGFBP-4, IGFBP-5, and IGFBP-6 are represented by BP1, BP2, BP3, BP4, BP5, and BP6, respectively.

[3] = target: T2, Myc-tagged LRP6N (LRP6N-Myc), extracellular portion of LRP6 (UniProt O75581 20-1370); experiment: radioligand saturation binding (Scatchard); Kd1, high-affinity site
T2 chain: T1 sequence (looked up)

[4] = target: T2, Myc-tagged LRP6N (LRP6N-Myc), …; experiment: radioligand saturation binding (Scatchard); Kd2, low-affinity site
[5] = target: T3, Myc-tagged Frz8CRD (Frz8CRD-Myc), cysteine-rich domain of Frizzled 8 (UniProt Q61091 28-151); experiment: radioligand saturation binding (Scatchard)
T3 chain: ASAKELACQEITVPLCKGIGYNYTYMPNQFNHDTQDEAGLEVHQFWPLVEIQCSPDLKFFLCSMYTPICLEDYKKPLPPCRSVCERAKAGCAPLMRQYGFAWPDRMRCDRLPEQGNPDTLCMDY

Molecule: ^125I-labelled IGFBP-4
Kd [1]: 25 nM

B2: ^125I-labelled IGFBP-4 (other)
chain: DEAIHCPPCSEEKLARCRPPVGCEELVREPGCGCCATCALGLGMPCGVYTPRCGSGLRCYPPRGVEKPLHTLMHGQGVCMELAEIEAIQESLQPSDKDEGDHPNNSFSPCSAHDRRCLQKHFAKIRDRSTSGGKMKVNGAPREDARPVPQGSCQSELHRALERLAASQSRTHEDLYIIPIPNCDRNGNFHPKQCHPALDGQRGKCWCVDRKTGVKLPGGLEPKGELDCHQLADSFRE
Kd [3]: 0.17 nM
Kd [4]: 6.9 nM
Kd [5]: 2.5 nM

More lines, now with the values ahead:

binding result [2]: no binding
B1: IGFBP-5 (V5-tagged) (other, mouse, UniProt Q07079 20-271, looked up)
chain: LGSFVHCEPCDEKALSMCPPSPLGCELVKEPGCGCCMTCALAEGQSCGVYTERCAQGLRCLPRQDEEKPLHALLHGRGVCLNEKSYGEQTKIERDSREHEEPTTSEMAEETYSPKVFRPKHTRISELKAEAVKKDRRKKLTQSKFVGGAENTAHPRVIPAPEMRQESEQGPCRRHMEASLQEFKASPRMVPRAVYLPNCDRKGFYKRKQCKPSRGRKRGICWCVDKYGMKLPGMEYVDGDFQCHAFDSSNVE
notes: V5-tagged in the IP/western; not shown: V5 tag

binding result [2]: no binding
B3: IGFBP-3 (V5-tagged) (other, mouse, UniProt P47878 28-292, looked up)
chain: GAGAVGAGPVVRCEPCDARALSQCAPPPTAPACTELVREPGCGCCLTCALREGDACGVYTERCGTGLRCQPRPAEQYPLRALLNGRGFCANASAAGSLSTYLPSQPAPGNISESEEEHNAGSVESQVVPSTHRVTDSKFHPLHAKMDVIKKGHARDSQRYKVDYESQSTDTQNFSSESKRETEYGPCRREMEDTLNHLKFLNVLSPRGVHIPNCDKKGFYKKKQCRPSKGRKRGFCWCVDKYGQPLPGYDTKGKDDVHCLSVQSQ
notes: as for B1

Reference: patent US20110243899A1 (NATIONAL UNIVERSITY CORPORATION CHIBA UNIVERSITY, published 2011)
